We go through 24 molecules from EP4810052A2 (Gubra A/S, dated 2026).

Sequences and labels used below:
T1: human corticotropin-releasing hormone receptor 1 (human, UniProt P34998 24-415)
T1 sequence (looked up): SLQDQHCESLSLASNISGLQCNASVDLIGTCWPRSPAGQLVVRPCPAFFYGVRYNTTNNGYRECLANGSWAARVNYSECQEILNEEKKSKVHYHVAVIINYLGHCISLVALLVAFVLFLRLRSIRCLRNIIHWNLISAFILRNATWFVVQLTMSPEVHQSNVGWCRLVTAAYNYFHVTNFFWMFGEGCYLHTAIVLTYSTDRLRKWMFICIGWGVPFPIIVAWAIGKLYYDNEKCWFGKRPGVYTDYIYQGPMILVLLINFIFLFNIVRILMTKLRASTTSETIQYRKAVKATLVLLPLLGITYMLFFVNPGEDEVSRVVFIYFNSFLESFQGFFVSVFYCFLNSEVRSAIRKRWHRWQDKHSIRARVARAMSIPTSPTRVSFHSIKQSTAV

B1: SEQ ID NO: 8 (peptide)
peptide: Ac-IVLSLDVPIGLLQILLEQARARAAREQAK(lip)TNAEILAEV-NH2
modifications: not fully specified; reading uncertain
B2: SEQ ID NO: 4 (peptide)
peptide: IVLSLDVPIGLLQILLEQARARAAREQATK(lip)NAEILAEV-NH2
modifications: not fully specified; reading uncertain
B3: SEQ ID NO: 5 (peptide)
peptide: [NMeI]VLSLDVPIGLLQILLEQARARAAREQAKTNAEILAEV-NH2
modifications: not fully specified (residue 29); also: lipid and spacer on Lys29 not given here
B4: SEQ ID NO: 260 (peptide)
peptide: lip-IVLSLDVPIGLLQILLEQARARAAREQATTNAEILAEV-NH2
modifications: not fully specified; reading uncertain
B5: SEQ ID NO: 2 (lipidated version of native UCN2) (peptide)
peptide: IVLSLDVPIGLLQILLEQARARAAREQAK(lip)TNARILARV-NH2
modifications: not fully specified; reading uncertain
B6: SEQ ID NO: 261 (peptide)
peptide: IVLSLDVPIGLK(lip)QILLEQARARAAREQATTNAEILAEV-NH2
modifications: not fully specified; reading uncertain
B7: SEQ ID NO: 7 (peptide)
peptide: PVLSLDVPIGLLQILLEQARARAAREQAK(lip)TNAEILAEV-NH2
modifications: not fully specified; reading uncertain
B8: SEQ ID NO: 11 (prior art peptide) (peptide)
peptide: K(lip)IVLSLDVPIGLLQILLEQARARAAREQATTNAEILAEV-NH2
modifications: not fully specified; reading uncertain
B9: SEQ ID NO: 10 (prior art peptide) (peptide)
peptide: [NMeI]VTSLDVPIGLLQILLEQEKQEKEKQQAK(lip)TNAEILAQV-NH2
modifications: reading uncertain
B10: SEQ ID NO: 9 (prior art peptide) (peptide)
peptide: [NMeI]VLSLDVPIGLLQILLEQEKQEKEKQQAK(lip)TNAQILAQV-NH2
modifications: not fully specified; reading uncertain
B11: SEQ ID NO: 12 (peptide)
peptide: IVLSLDVPIGLLQILLEQARARAAREQAK(lip)TNLEILAEV-NH2
modifications: not fully specified; reading uncertain
B12: SEQ ID NO: 13 (peptide)
peptide: IVLSLDVPIGLLQILLEQARARAAREQAK(lip)TNIEILAEV-NH2
modifications: not fully specified; reading uncertain
B13: SEQ ID NO: 14 (peptide)
peptide: IVLSLDVPIGLLQILLEQARARAAREQAK(lip)TNVEILAEV-NH2
modifications: not fully specified; reading uncertain
B14: SEQ ID NO: 15 (peptide)
peptide: IVLSLDVPIGLLQILLEQARARAAREQAK(lip)TN[Aib]EILAEV-NH2
modifications: reading uncertain
B15: SEQ ID NO: 83 (peptide)
peptide: IVLSLDVPIGLLQILLSQARARAAREQAK(lip)TNAEI[Nle]AEV-NH2
modifications: not fully specified; reading uncertain
B16: SEQ ID NO: 132 (peptide)
peptide: [NMeI]VLSLDVPIGLLQILLSQARARAAREQAK(lip)[Aib]NAEI[Nle]AEV-NH2
modifications: reading uncertain
B17: SEQ ID NO: 239 (peptide)
peptide: IVLSLDVPIGLLQILLSQARARAAREQAKENAEI[Nle]AEV-NH2
modifications: not fully specified (residue 29); also: lipid and spacer on Lys29 not given here
B18: SEQ ID NO: 89 (peptide)
peptide: IVLSLDVPIGLLQILLSQARARAAREQAK(lip)TNAEI[Nle]AEI-NH2
modifications: not fully specified; reading uncertain
B19: SEQ ID NO: 236 (peptide)
peptide: IVLSLDVPIGLLQILLEQARARAAREQAK[Aib]NAEI[Nle]AEI-NH2
modifications: not fully specified (residue 29); also: lipid and spacer on Lys29 not given here
B20: SEQ ID NO: 101 (peptide)
peptide: [NMeI]VLSLDVPIGLLQILLSQARARAAREQAK(lip)ENAEI[Nle]AEV-NH2
modifications: reading uncertain
B21: SEQ ID NO: 45 (peptide)
peptide: IVLSLDVPIGLLQILLEQARARAAREQAKTNAEI[Nle]AEV-NH2
modifications: not fully specified (residue 29); also: lipid and spacer on Lys29 not given here
B22: SEQ ID NO: 69 (peptide)
peptide: IVLSLDVPIGLLQILLEQARARAAREQAKTNAEI[Nle]AEI-NH2
modifications: not fully specified (residue 29); also: lipid and spacer on Lys29 not given here
B23: SEQ ID NO: 234 (peptide)
peptide: IVLSLDVPIGLLQILLSQARARAAREQAKTN[Aib]EI[Nle]AEV-NH2
modifications: not fully specified (residue 29); also: lipid and spacer on Lys29 not given here
B24: SEQ ID NO: 237 (peptide)
peptide: IVLSLDVPIGLLQILLSQARARAAREQAK[Aib]NAEI[Nle]AEV-NH2
modifications: not fully specified (residue 29); also: lipid and spacer on Lys29 not given here

Non-standard residues stand in square brackets, D forms with d. No end group written: not given here. NMeI = CC[C@H](C)[C@H](NC)C(=O)O; Nle = CCCC[C@H](N)C(=O)O; lip = not defined here; Aib = CC(C)(N)C(=O)O

In the first test the target is T1, human corticotropin-releasing hormone …. As to the kind of experiment: cell-based or functional assay.
Regarding B1, the “hCRHR1 EC50 (nM); HTRF cAMP assay, CHO-K1 cells stably expressing hCRHR1” value (“hCRHR1 EC50 (nM); HTRF cAMP assay” for short) worked out at 560 nM.
Still for that read-out and setting: the value for B2 was over 5000 nM; that for B3 was over 5000 nM.
On to B4, for which the “hCRHR1 EC50 (nM); HTRF cAMP assay” value amounted to 110 nM.
Regarding B5, the “hCRHR1 EC50 (nM); HTRF cAMP assay” value was over 5000 nM.
Still for that read-out and setting: the result for B6 reads over 5000 nM.
On the same count and under the same terms, the result for B7 reads over 5000 nM; that for B8, 670 nM.
Take B9: the “hCRHR1 EC50 (nM); HTRF cAMP assay” value was found to be 68 nM.
Take B10: the “hCRHR1 EC50 (nM); HTRF cAMP assay” value came to 510 nM.

The next test shares this target. Kind of test: cell-based or functional assay. The source holds these as a separate data set.
In the case of B11, the “hCRHR1 EC50 (nM); HTRF cAMP assay” value was over 5000 nM.
Still for that read-out and setting: the value for B12 was over 5000 nM; that for B13 was over 5000 nM.
Turning to B14, the “hCRHR1 EC50 (nM); HTRF cAMP assay” value is over 5000 nM.

For the next test the target is unchanged. Kind of test: cell-based or functional assay. This is another data set of the same source.
Regarding B15, the “hCRHR1 EC50 (nM); HTRF cAMP assay” value is over 5000 nM.
Turning to B16, the “hCRHR1 EC50 (nM); HTRF cAMP assay” value was over 5000 nM.
As for B17, the “hCRHR1 EC50 (nM); HTRF cAMP assay” value was over 5000 nM.
With B18, the “hCRHR1 EC50 (nM); HTRF cAMP assay” value is over 5000 nM.
Consider B19, for which the “hCRHR1 EC50 (nM); HTRF cAMP assay” value is over 5000 nM.
The same measure, in the same setting: the result for B20 reads over 5000 nM; that for B21, 56 nM; that for B22, over 5000 nM.
On the same count and under the same terms, the value for B23 was over 5000 nM; that for B24 was over 5000 nM.
